Measurements from patent publication US20250376529A1 (Amgen, published 2025).
Numbering of substitutions follows the chain as printed.

T1: Rhesus GIPR (rhesus, UniProt F7E1R9 22-466)
T1 sequence: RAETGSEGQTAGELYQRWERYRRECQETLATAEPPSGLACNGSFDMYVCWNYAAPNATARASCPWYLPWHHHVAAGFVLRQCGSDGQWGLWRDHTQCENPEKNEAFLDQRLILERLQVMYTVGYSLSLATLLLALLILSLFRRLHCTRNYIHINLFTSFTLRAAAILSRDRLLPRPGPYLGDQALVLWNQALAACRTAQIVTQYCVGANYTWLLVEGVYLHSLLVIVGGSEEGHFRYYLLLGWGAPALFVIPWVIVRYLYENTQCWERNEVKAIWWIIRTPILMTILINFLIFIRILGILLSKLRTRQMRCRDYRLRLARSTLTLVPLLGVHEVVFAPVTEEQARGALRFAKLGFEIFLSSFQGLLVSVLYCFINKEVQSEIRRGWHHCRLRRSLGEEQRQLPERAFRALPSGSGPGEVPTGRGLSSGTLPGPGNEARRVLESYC

T2: huGIPR ECD (human, UniProt P48546 22-139, limits assumed)
T2 construct: Soluble ECD injected in the MASS-1 assay; also called human GIPR extracellular domain
T2 sequence: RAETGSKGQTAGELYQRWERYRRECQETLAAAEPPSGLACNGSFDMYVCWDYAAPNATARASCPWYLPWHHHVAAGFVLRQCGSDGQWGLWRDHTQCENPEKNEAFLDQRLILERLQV

T3: human GIPR transiently expressed on 293T cells (human, UniProt P48546 22-466)
T3 sequence: T1 sequence with E7K, T31A, N51D, T160M, V186A, I226L, L365F, G422S, R438S, V440E

B1: 6A5.004.009 (antibody, human IgG1, kappa, N297G, V domains shown)
VH: QVQLVESGGGVVQPGRSLRLSCAASGFSFSSYGMHWVRQPPGKGLEWVAAIWYDANNKYYADSVKGRFTISRDSSKNTLYLQMNSLRAEDTAVYYCARDRTIFGVVLEYWGQGTLVTVSS
VL: DIQMTQSPSSLSASVGDRVTITCQASQDITNYLNWYQQKPGKAPKLLIYDASNLEPGVPSRFSGSGSGTDFTLTISSLQPEDFATYYCQQYDDLFTFGPGTKVDIKR
notes: also called iPS:361120; iPS:361122
B2: 2G10_LC1.006 (antibody, human IgG1, kappa, N297G, V domains shown)
VH: not shown
VL: EIVMTQSPATLSVSPGERATLSCRASQSVSSNLAWYQQKPGQAPRLLIYGAATRATGIPARVSGSGSGTEFTLTISSLQSEDFAVYYCQQYNNWPLTFGGGTKVEIKR
notes: also called iPS:361192; iPS:361194
B3: 2F11.009 (antibody, human IgG1, kappa, N297G, V domains shown)
VH: B1 VH with S28T, P40A, A50V, N56S, S74N, E108D
VL: B1 VL with T30S, P56T, T72S, D93I, F95L, P99G, D104E
B4: 2F11.010 (antibody, human IgG1, kappa, N297G, V domains shown)
VH: not shown
VL: B1 VL with T30S, P56T, T72S, D93I, F95L, P99G, D104E
B5: 4H9.004.003 (antibody, human IgG1, kappa, N297G, V domains shown)
VH: not shown
VL: DIQMTQSPSSLSASVGDRVTITCRASQGIRNELGWYQQKPGKAPKLLIYGASSLQSGVPSRFSGSGSGTEFTLTISSLQPEDFVTYYCLQHNSYPFTFGQGTKVDVKR
B6: 2A11.003 (antibody, human IgG1, kappa, N297G, V domains shown)
VH: QVQLVESGGGVVQPGRSLRLSCAASGFSFSSYGMHWVRQAPGKGLEWVAVIWYDGSNKYYEDSVKGRFTISRDNSKNTLFLQVNSLRAEDTAVYYCARGITIFGHGFEYWGQGTLVTVSS
VL: EIVLTQSPGTLSLSPGERATLSCRASQIFTSTYLAWYQQKPGQAPRLLIYGASSRATGIPDRFSGSGSGTDFTLTISRLEPEDFAVYYCQQYGSSPRFGQGTRLEIKR
notes: also called iPS:335965; iPS:335967
B7: 2A11.004 (antibody, human IgG1, kappa, N297G, V domains shown)
VH: B6 VH with S63A
VL: B6 VL
notes: also called iPS:361158; iPS:361160
B8: 2A11.005 (antibody, human IgG1, kappa, N297G, V domains shown)
VH: B6 VH with G55A
VL: B6 VL
notes: also called iPS:361165; iPS:361167

Columns and labels:
Rhesus GIPR = molecular target: T1, Rhesus GIPR; assay: cell-based or functional assay
huGIPR ECD [1] = molecular target: T2, huGIPR ECD; assay: SPR (MASS-1), captured mAb
huGIPR ECD [2] = molecular target: T2, huGIPR ECD; assay: SPR (MASS-1), captured mAb, 200 nM huGIPR ECD
[3] = molecular target: T3, human GIPR transiently expressed on …; assay: cell-based or functional assay

Rhesus GIPR CAMP Assay (Conc. mAb @ 60% Inhibition in nM) (Rhesus GIPR) | binding result (huGIPR ECD [1]) | other results | Binder
23.3 nM | no binding (tested: 200 nM huGIPR ECD) |  | B1
0.52 nM |  | koff (huGIPR ECD [2]): 0.001 s⁻¹; Hu GIPR CAMP Assay (Conc. mAb @ 60% Inhibition in nM) [3]: 1.04 nM | B2
36.9 nM |  |  | B3
8.24 nM |  |  | B4
0.5 nM |  |  | B5
 | no binding (tested: 200 nM huGIPR ECD) |  | B6
 | no binding (tested: 200 nM huGIPR ECD) |  | B7
 | no binding (tested: 200 nM huGIPR ECD) |  | B8
